Measured values: patent US6420345 (dated 2002)

B1: W10 (other)
chain: MGYPYDVPDYAKPSACRNLFGPVDHEELTRDLEKHCRDMEEASQRKWNFDFQNHKPLEGKYEWQEVEKGSLPEFYYRPPRGGGGSGGGGSGGGGSVEDPAAGSSMEPSADWLATAAARGRVEEVRALLEAGALPNAPNSYGRRPIQVMMMGSARVAELLLLHGAEPNCADPATLTRPVHDAAREGFLDTLVVLHRAGARLDVRDAWGRLPVDLAEELGHRDVARYLRAAAGGTRGSNHARIDAAEGPSDIPD
B2: W9 (other)
chain: MGYPYDVPDYAKPSACRNLFGPVDHEELTRDLEKHCRDMEEASQRKWNFDFQNHKPLEGKYEWQEVEKGSLPEFYYRPPRVEDPAAGSSMEPSADWLATAAARGRVEEVRALLEAGALPNAPNSYGRRPIQVMMMGSARVAELLLLHGAEPNCADPATLTRPVHDAAREGFLDTLVVLHRAGARLDVRDAWGRLPVDLAEELGHRDVARYLRAAAGGTRGSNHARIDAAEGPSDIPD
B3: human p16 (other)
chain: MEPAAGSSMEPSADWLATAAARGRVEEVRALLEAGALPNAPNSYGRRPIQVMMMGSARVAELLLLHGAEPNCADPATLTRPVHDAAREGFLDTLVVLHRAGARLDVRDAWGRLPVDLAEELGHRDVARYLRAAAGGTRGSNHARIDAAEGPSDIPD

How the values were obtained:
Experiment in all cases: in vitro kinase assay
CDK4/cyclin D1 complex = CDK4/cyclin D1 complex (UniProt P11802 1-303; P24385 1-295)
CDK4/cyclin D1 complex, sequence (P11802 whole entry, chain 1 of 2): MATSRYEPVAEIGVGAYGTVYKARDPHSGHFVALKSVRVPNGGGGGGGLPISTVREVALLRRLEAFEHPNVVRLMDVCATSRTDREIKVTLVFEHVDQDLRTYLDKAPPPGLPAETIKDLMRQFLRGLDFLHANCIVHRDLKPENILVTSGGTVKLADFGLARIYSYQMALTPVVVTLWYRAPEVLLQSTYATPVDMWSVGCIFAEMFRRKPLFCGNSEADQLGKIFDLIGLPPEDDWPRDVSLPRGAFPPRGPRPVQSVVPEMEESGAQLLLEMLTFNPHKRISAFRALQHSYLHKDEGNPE
CDK4/cyclin D1 complex, sequence (P24385 whole entry, chain 2 of 2): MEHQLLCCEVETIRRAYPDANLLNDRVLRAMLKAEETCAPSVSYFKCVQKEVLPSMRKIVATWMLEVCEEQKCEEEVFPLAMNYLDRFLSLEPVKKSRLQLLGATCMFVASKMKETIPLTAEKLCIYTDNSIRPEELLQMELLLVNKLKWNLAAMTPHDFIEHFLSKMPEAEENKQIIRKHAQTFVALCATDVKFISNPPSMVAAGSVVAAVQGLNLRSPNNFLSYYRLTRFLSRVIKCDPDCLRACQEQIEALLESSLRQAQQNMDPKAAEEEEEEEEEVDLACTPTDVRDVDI

CDC2/cyclin B complex = CDC2/cyclin B complex (UniProt P06493 1-297; P14635 1-433)
CDC2/cyclin B complex, sequence (P06493 whole entry, chain 1 of 2): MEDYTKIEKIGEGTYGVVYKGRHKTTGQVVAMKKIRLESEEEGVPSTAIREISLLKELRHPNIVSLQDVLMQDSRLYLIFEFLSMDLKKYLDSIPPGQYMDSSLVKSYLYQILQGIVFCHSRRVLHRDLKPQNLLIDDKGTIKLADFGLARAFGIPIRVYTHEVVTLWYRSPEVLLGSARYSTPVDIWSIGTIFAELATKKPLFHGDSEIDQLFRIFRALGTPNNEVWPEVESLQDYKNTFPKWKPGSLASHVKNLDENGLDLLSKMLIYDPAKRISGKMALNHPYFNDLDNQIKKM
CDC2/cyclin B complex, sequence (P14635 whole entry, chain 2 of 2): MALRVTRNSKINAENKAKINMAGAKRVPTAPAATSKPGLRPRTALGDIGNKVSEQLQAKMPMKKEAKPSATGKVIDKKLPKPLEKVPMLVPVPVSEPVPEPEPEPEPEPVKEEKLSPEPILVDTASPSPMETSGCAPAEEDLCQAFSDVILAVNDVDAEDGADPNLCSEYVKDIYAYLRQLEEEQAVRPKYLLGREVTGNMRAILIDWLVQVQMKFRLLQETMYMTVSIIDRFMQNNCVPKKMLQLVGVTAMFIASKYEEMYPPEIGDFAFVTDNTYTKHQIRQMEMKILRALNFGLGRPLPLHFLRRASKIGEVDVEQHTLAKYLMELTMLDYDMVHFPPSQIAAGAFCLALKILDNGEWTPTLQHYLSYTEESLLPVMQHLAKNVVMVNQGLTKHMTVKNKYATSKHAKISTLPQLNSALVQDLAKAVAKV

CDK2/cyclin E complex = CDK2/cyclin E complex (UniProt P24941 1-298; P24864 16-410)

Binder	IC50 (CDK4/cyclin D1 complex)	IC50 (CDC2/cyclin B complex)	IC50 (CDK2/cyclin E complex)
B1	38 nM	17 nM	3 nM
B2	47 nM	18 nM	3.5 nM
B3	100 nM	> 1000 nM	> 1000 nM
